B1: RE1-silencing transcription factor (Homo sapiens), Q13127 (parent)
chain: MATQVMGQSSGGGGLFTSSGNIGMALPNDMYDLHDLSKAELAAPQLIMLANVALTGEVNGSCCDYLVGEERQMAELMPVGDNNFSDSEEGEGLEESADIKGEPHGLENMELRSLELSVVEPQPVFEASGAPDIYSSNKDLPPETPGAEDKGKSSKTKPFRCKPCQYEAESEEQFVHHIRVHSAKKFFVEESAEKQAKARESGSSTAEEGDFSKGPIRCDRCGYNTNRYDHYTAHLKHHTRAGDNERVYKCIICTYTTVSEYHWRKHLRNHFPRKVYTCGKCNYFSDRKNNYVQHVRTHTGERPYKCELCPYSSSQKTHLTRHMRTHSGEKPFKCDQCSYVASNQHEVTRHARQVHNGPKPLNCPHCDYKTADRSNFKKHVELHVNPRQFNCPVCDYAASKKCNLQYHFKSKHPTCPNKTMDVSKVKLKKTKKREADLPDNITNEKTEIEQTKIKGDVAGKKNEKSVKAEKRDVSKEKKPSNNVSVIQVTTRTRKSVTEVKEMDVHTGSNSEKFSKTKKSKRKLEVDSHSLHGPVNDEESSTKKKKKVESKSKNNSQEVPKGDSKVEENKKQNTCMKKSTKKKTLKNKSSKKSSKPPQKEPVEKGSAQMDPPQMGPAPTEAVQKGPVQVEPPPPMEHAQMEGAQIRPAPDEPVQMEVVQEGPAQKELLPPVEPAQMVGAQIVLAHMELPPPMETAQTEVAQMGPAPMEPAQMEVAQVESAPMQVVQKEPVQMELSPPMEVVQKEPVQIELSPPMEVVQKEPVKIELSPPIEVVQKEPVQMELSPPMGVVQKEPAQREPPPPREPPLHMEPISKKPPLRKDKKEKSNMQSERARKEQVLIEVGLVPVKDSWLLKESVSTEDLSPPSPPLPKENLREEASGDQKLLNTGEGNKEAPLQKVGAEEADESLPGLAANINESTHISSSGQNLNTPEGETLNGKHQTDSIVCEMKMDTDQNTRENLTGINSTVEEPVSPMLPPSAVEEREAVSKTALASPPATMAANESQEIDEDEGIHSHEGSDLSDNMSEGSDDSGLHGARPVPQESSRKNAKEALAVKAAKGDFVCIFCDRSFRKGKDYSKHLNRHLVNVYYLEEAAQGQE

Variants of: B1
Details: with fbw1a_human BTRC

**Q.** How did the “effect of a mutation on the interaction” value turn out when E1009A;S1013A was run?
**A.** The value was “disrupting interaction strength”.

**Q.** With S1013A as the variant, how does the “effect of a mutation on the interaction” value read?
**A.** The value was “disrupting interaction strength”.

**Q.** How did the “effect of a mutation on the interaction” value turn out when E1009A was run?
**A.** The value was “disrupting interaction strength”.
